In patent US20240158515A1, “ANTI-FGFR3 ANTIBODIES AND ANTIGEN-BINDING FRAGMENTS AND METHODS OF USE THEREOF” (Regeneron Pharmaceuticals, Inc., priority 2022, published 2024):

How the values were obtained:
[1] = tested on: CD73 protein level in UMUC14 cells; assay: CD73 expression in UMUC14 cells in vitro, Western blot; format: cell-based; conditions: 1 nM, 10 nM, 100 nM, 48 hrs, FIG. 6
Experimental: To investigate the effect of anti-FGFR3 antibody or tyrosine kinase inhibitor (AZD4547; commercially available) on CD73 expression, UMUC14 bladder cancer cells were seeded in 6 well tissue culture plate (Corning) in complete medium (MEM medium with 10% FBS, 1% Non-Essential Amino Acids, Pen/Strep) and cultured overnight at 37° C. 5% CO2. Cells were then treated with antibodies or inhibitors at indicated concentration (100 nM, 10 nM or 1 nM) for 48 hrs. Cells were washed with pre-chilled PBS and collected in lysis buffer containing protease and phosphatase inhibitors. Equal amount of cell lysates were analyzed by SDS-PAGE. Blots were blocked in 0.5% Tween 20 in Tris buffered saline (TBS) containing 5% non-fat dry milk followed by overnight incubation with anti-CD73 primary antibody (Cell Signaling Technology). After washing 3× with TBST and incubation with secondary antibody, membranes were developed with SuperSignal West Pico or Femto substrate and luminescence images were captured with a C300 imager (Azure Biosystems).

[2] = tested on: CD73 protein level in Fadu S249C tumors; assay: CD73 expression in Fadu S249C tumors in vivo, Western blot; design: species or system SCID mice; conditions: FGFR3 mAb 15 mg/kg one intraperitoneal dose; AZD4547 25 mg/kg daily gavage; FIG. 11A-11B
Experimental: To test the effect of anti-FGFR3 inhibitory antibody or tyrosine kinase inhibitor (AZD4547) on CD73 expression in vivo, tumor cells (5×10^6 UMUC14, 3×10^6 Fadu EV or S249C, in 50% Matrigel) were implanted subcutaneously into the right flank of 6 to 8-week-old female SCID mice (Jackson Laboratory). Once tumors were established (˜200 mm^3 in volume), mice were randomized into treatment groups (n=5-6 mice per group) and injected intraperitoneally once with anti-FGFR3 antibodies (15 mg/kg) or isotype control. Tyrosine kinase inhibitor AZD4547 (25 mg/kg) was administered once daily by oral gavage for 3 days. Tumors were collected 4 days post treatment initiation. Tumors were collected, snap frozen and lysed in RIPA buffer. Equal amount of tumor lysates were analyzed by SDS-PAGE and blotted with anti-CD73 and anti-FGFR3 antibodies as described above. Membranes were developed with SuperSignal West Pico or Femto substrate and luminescence images were captured with a C300 imager (Azure Biosystems). Intensity of each CD73 and actin band was quantitated using Image J (NIH), and the ratio of CD73/actin for each sample were graphed using Prism Graphpad.

[3] = tested on: BaF3 cells expressing FGFR3 S249C; assay: BaF3 proliferation assay, FGFR3 S249C (TKI resistance study); format: cell-based, murine; conditions: 72 h, CellTiter-Glo, FIG. 12A left; read-out: IC50, growth of BaF3 cells expressing FGFR3 S249C
Experimental: (§1) IL-3 dependent murine pro B cell line BaF3 cells were engineered to stably express full length human FGFR3b S249C, V557L, V557M, S249C/V557L, S249C/V557M (accession number for WT FGFR3b NP_001156685.1, amino acids M1-T808). Cells were maintained in RPMI 1640+10% FBS+P/S/G+1 ng/ml mouse IL-3+500 ug/ml Neomycin; 37° C. 5% CO2. For proliferation assays, cells were washed with IL-3-free culture media and plated at 10^5 cells/well into 96-well black wall tissue culture plates. Cells were treated with 1:3 serially diluted antibody as indicated in the presence or absence of 5 μg/ml heparin and 1 nM human FGF1. After addition of antibodies, cells were incubated at 37° C./5% CO2 for 72 h followed by the addition of an equal volume of CellTiter-Glo™ (Promega) reagent to lyse cells and detect luciferase activity. Luminescence signal was quantitated with Envision plate reader (PerkinElmer). EC50 values of the antibodies were determined using GraphPad Prism software.

[4] = tested on: BaF3 cells expressing FGFR3 S249C/V557M; assay: BaF3 proliferation assay, FGFR3 S249C/V557M; format: cell-based, murine; conditions: FIG. 12B
Experimental: as §1

[5] = tested on: BaF3 cells expressing FGFR3 S249C/V557L; assay: BaF3 proliferation assay, FGFR3 S249C/V557L; format: cell-based, murine; conditions: FIG. 12A right
Experimental: as §1

[6] = target: T1, human FGFR3b (hFGFR3b.mmH, REGN3152) (Homo sapiens, UniProt P22607); assay: Biacore SPR binding kinetics, monomeric human FGFR3b to captured antibodies; conditions: 25° C.
T1 construct: REGN3152 (human FGFR3b expressed with a C-terminal myc-myc-hexahistidine tag)
Experimental: (§2) Biacore binding kinetics of anti-FGFR3 antibodies, in an antibody capture format, to monomeric human FGFR3b, cynomolgus FGFR3b, murine FGFR3b, human FGFR3c, and dimeric human FGFR3b ecto domain recombinant proteins at 25° C. were analyzed.
(§3) Equilibrium dissociation constants (KD values) for human FGFR3b expressed with a C-terminal myc-myc-hexahistidine tag (hFGFR3b.mmH, REGN3152) or cynomolgus FGFR3b expressed with a C-terminal myc-myc-hexahistidine tag (mfFGFR3b.mmH, REGN3521), or murine FGFR3b expressed with a C-terminal myc-myc-hexahistidine tag (mFGFR3b.mmH, REGN3215) or human FGFR3c expressed with a C-terminal myc-myc-hexahistidine tag (hFGFR3c.mmH, REGN3155) or human FGFR3b expressed with an C-terminal murine Fc tag (hFGFR3b.mFc, REGN3153) binding to purified anti-FGFR3 antibodies were determined using a real-time surface plasmon resonance biosensor technology using a Biacore 3000 or Biacore 4000 instrument. […] Antibody-reagent association was monitored for 5 minutes while dissociation in HBS-EP running buffer was monitored for 10 minutes. […]
(§4) The specific SPR-Biacore sensorgrams were obtained by a double referencing procedure. […] Kinetic association (ka) and dissociation (kd) rate constants were determined by fitting the real-time sensorgrams to a 1:1 binding model using Scrubber v2.0c curve fitting software. […]

[7] = target: T2, human FGFR3c (hFGFR3c.mmH, REGN3155) (Homo sapiens, UniProt P22607); assay: Biacore SPR binding kinetics, monomeric human FGFR3c to captured antibodies; conditions: 25° C.
T2 construct: REGN3155 (human FGFR3c expressed with a C-terminal myc-myc-hexahistidine tag)
Experimental: as §2, §3, §4

[8] = target: T3, hFGFR3c-hFc binding to hFGF acidic protein (Homo sapiens, UniProt P22607); assay: ELISA blocking of hFGFR3c-hFc binding to hFGF acidic
T3 construct: hFGFR3c extracellular domain (amino acids Glu23-Gly375); purchased R&D Systems 766-FR-050
T3 sequence (P22607 23-375): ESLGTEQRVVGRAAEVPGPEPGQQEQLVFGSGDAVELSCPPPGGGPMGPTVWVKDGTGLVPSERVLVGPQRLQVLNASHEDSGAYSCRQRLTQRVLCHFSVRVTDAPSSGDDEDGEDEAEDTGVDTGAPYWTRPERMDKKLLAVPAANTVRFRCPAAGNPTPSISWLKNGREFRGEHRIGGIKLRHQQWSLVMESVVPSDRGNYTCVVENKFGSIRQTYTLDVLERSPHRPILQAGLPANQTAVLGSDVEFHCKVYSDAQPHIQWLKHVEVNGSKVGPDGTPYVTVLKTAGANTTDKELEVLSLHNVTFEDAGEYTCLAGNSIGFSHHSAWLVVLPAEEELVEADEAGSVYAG
Description: (§5) An ELISA-based blocking assay was developed to determine the ability of anti-FGFR3 antibodies to block the binding of human fibroblast growth factor receptor 3 isoform b (hFGFR3b) or human fibroblast growth factor receptor 3 isoform c (hFGFR3c) to human fibroblast growth factor acidic (hFGF acidic) or basic (hFGF basic) ligands.
(§6) The human FGFR3b recombinant protein used in the experiments had the hFGFR3b extracellular domain (amino acids E23-G377) expressed with the Fc portion of the mouse IgG2a at the C-terminus (amino acids E98-K330) (hFGFR3b-mFc, accession #NM_001163213.1). The hFGFR3c and hFGF acidic proteins were purchased commercially. […]
(§7) In the blocking assay, a 96-well microtiter plate was coated with either hFGF acidic or hFGF basic proteins at […] in PBS+10 mg/ml heparin overnight at 4° C. […] After a 1 hour incubation at room temperature, plates were washed, and plate-bound hFGFR3b-mFc or hFGFR3c-hFc proteins were detected with horseradish peroxidase (HRP) conjugated goat anti-mouse or goat anti-human Fcγ fragment specific antibodies. The plates were then developed using TMB substrate solution (BD Biosciences) according to the manufacturer's recommended procedure and absorbance at 450 nm was measured on a Victor X5 plate reader.
(§8) Binding data were analyzed using a sigmoidal (four-parameter logistic) dose-response model using GraphPad Prism software. […]

[9] = target: T4, hFGFR3c-hFc binding to hFGF basic protein (Homo sapiens, UniProt P22607); assay: ELISA blocking of hFGFR3c-hFc binding to hFGF basic
T4 construct: hFGFR3c extracellular domain (amino acids Glu23-Gly375); purchased R&D Systems 766-FR-050
T4 sequence (P22607 23-375): T3 sequence (P22607 23-375)
Description: as §5, §6, §7, §8

T1 sequence (P22607 with tags, fused parts or gaps isoform P22607-2): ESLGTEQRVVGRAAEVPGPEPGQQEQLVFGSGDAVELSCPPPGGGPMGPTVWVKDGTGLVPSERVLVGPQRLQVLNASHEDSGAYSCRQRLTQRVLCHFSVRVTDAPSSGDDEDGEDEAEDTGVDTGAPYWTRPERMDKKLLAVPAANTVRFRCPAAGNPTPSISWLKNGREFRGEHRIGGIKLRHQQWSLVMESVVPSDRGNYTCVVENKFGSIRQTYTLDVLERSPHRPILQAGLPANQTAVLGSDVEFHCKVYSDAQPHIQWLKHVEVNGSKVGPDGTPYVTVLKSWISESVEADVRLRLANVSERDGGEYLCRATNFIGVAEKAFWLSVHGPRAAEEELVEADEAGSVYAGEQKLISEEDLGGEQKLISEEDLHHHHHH
T2 sequence (P22607 with tags, fused parts or gaps): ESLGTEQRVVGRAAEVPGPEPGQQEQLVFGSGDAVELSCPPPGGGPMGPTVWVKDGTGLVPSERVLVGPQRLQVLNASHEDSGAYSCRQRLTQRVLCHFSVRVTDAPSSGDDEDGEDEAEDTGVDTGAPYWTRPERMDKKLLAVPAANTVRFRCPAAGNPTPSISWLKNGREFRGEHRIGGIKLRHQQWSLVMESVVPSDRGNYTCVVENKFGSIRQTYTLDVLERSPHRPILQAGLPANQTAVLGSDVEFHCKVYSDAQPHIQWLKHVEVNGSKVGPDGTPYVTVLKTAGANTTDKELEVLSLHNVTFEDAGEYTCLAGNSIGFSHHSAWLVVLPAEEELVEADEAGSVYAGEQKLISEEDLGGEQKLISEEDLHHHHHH

| ka [6] | kd [6] | ka [7] | kd [7] | Antibody blocking 0.4 nM hFGFR3c-hFc binding to hFGF acidic protein, % Blocking at 200 nM mAb [8] | Antibody blocking 7 nM hFGFR3c-hFc binding to hFGF basic protein, % Blocking at 200 nM mAb [9] | Substance | CD73 expression in UMUC14 cells in vitro (in words) [1] | CD73 expression in Fadu S249C tumors in vivo (in words) [2] | IC50 [3] | growth inhibition of BaF3 cells expressing FGFR3 S249C+V557M (in words) [4] | growth inhibition of BaF3 cells expressing FGFR3 S249C+V557L (in words) [5] |
| --- | --- | --- | --- | --- | --- | --- | --- | --- | --- | --- | --- |
| – | – | – | – | – | – | AZD4547 [reference compound] | dose dependent downregulation of CD73 expression | decreased expression of CD73 relative to mice treated with control | 9.9 nM | ineffective | ineffective |
| 883000 M⁻¹ s⁻¹ | 0.000616 s⁻¹ | 544000 M⁻¹ s⁻¹ | 0.00132 s⁻¹ | 86% | 87% | REGN6331: comparator; relates to FGFR3b mAb, hIgG1 (mAb 184.6.1 N54S, Genentech); HC SEQ ID NO: 244, LC SEQ ID NO: 243 [reference compound] | – | – | – | – | – |
